The Human Domainome abundance scans (Beltran et al. 2025)

B1: RanBP-type and C3HC4-type zinc finger-containing protein 1, residues 369 to 411; numbered along this chain, Q9BYM8 (parent)
chain: YHCKTPDCKGWCFFEDDVNEFTCPVCFHVNCLLCKAIHEQMNC

Variants of: B1
Assay: abundance fitness (aPCA) (normalised: wild type 0, dead -1); higher = more abundant; growth selection in yeast, the domain comes from the species named
Conditions: Homo sapiens

Abundance fitness: each site, then its substitutions
D16: T -0.088 | Q 0.045 | P 0.113 | C -0.182 | L -0.166
H28: W -0.592 | C -0.205 | A 0.081 | M -0.065 | S -0.029 | Y -0.489 | Q 0.059 | K 0.131 | R 0.011 | D -0.661 | V -0.298 | E 0.005 | I -0.224 | G -0.103 | P -0.912 | T -0.041
D17: I -0.265 | A -0.038 | C -0.215 | W -0.133 | Q 0.142 | V 0.034 | G 0.116 | M -0.256 | H -0.021 | T -0.077 | K 0.079 | E 0.06
C31: L -1.02 | M -0.725 | T -0.451 | F -0.648 | S -0.438 | R -0.558 | W -0.738 | V -0.76 | K -0.758 | H -0.469 | D -0.54 | Q -0.521 | G -0.655 | E -0.611 | Y -0.154 | A -0.805 | N -0.532
C23: G -0.891 | Q -0.621 | M -0.895 | S -0.904 | A -0.794 | R -0.771 | T -0.761 | Y -0.677 | H -0.786 | E -0.82 | L -0.89 | W -0.741 | V -0.911 | K -0.529
E15: Q -0.096 | P -0.153 | N -0.295 | D -0.201 | S -0.254 | L -0.423 | K -0.169 | G -0.204 | C -0.32 | V -0.238 | T -0.042 | H -0.321 | I -0.187
N19: C -0.118 | W -0.152 | P -0.276 | F -0.395 | Q 0.052 | H -0.264 | V 0.028 | G -0.194 | R 0.014 | A -0.023 | E 0.042 | T 0.09 | D -0.052 | K 0.09 | Y -0.172 | S 0.024 | M -0.078 | L -0.081
E20: D -0.347 | I -0.465 | S -0.222 | G -0.457 | K -0.202 | M -0.1 | L -0.163 | Q -0.206 | N -0.276 | H -0.332 | R -0.255 | P -0.83 | A -0.311 | T -0.119 | C -0.303 | V -0.391 | F -0.122
N30: M -1.16 | Q -0.788 | Y -0.614 | A -1.3 | P -0.784 | T -0.57 | G -0.811 | W -0.855 | C -0.777 | L -1.22 | H -0.42 | D -0.79 | S -0.797 | I -0.835 | R -0.8 | K -0.781 | V -1.04 | E -0.891
K9: T 0.056 | Y -0.485 | W -0.105 | V 0.026
T22: K -0.102 | E -0.166 | H -0.032 | G -0.658 | N -0.32 | M -0.29 | D -0.343 | L -0.146 | P -0.413 | I -0.243 | S -0.267 | R -0.126 | F -0.261 | Q -0.118 | A -0.296 | C -0.149 | V -0.254 | W -0.422
G10: S -0.587 | M -0.563 | D -0.764 | Y -0.343 | L -0.945 | A -0.541 | R -0.66 | E -0.573 | F -0.346 | P -0.723 | H -0.359 | T -0.494 | N -0.79 | K -0.621 | V -0.779
